# Measured values reported in PMC5095173, “Disulfide-activated protein kinase G Iα regulates cardiac diastolic relaxation and fine-tunes the Frank–Starling response” (Nature Communications, 2016).
# Where no end group is shown, it is not given here.
# B1: N-terminally acetylated peptide of the N-terminal cytoplasmic domain of human phospholamban, PLN (amino acid 1-23) (peptide, UniProt P26678 1-23, looked up)
# peptide: Ac-MEKVQYLTRSAIRRASTIEMPQQ
# notes: cardiac phospholamban, human, residues 1-23 (N-terminal cytoplasmic domain); also called PLN_(1–23); PLN (1–23); source: synthetic peptide; bought: PeptideSynthetics (Peptide Protein Research Ltd, UK)
# B2: oxidized (WT) protein kinase G Iα, Cys42 disulfide dimer (enzyme, human, UniProt Q13976 1-671, looked up)
# chain: MSELEEDFAKILMLKEERIKELEKRLSEKEEEIQELKRKLHKCQSVLPVPSTHIGPRTTRAQGISAEPQTYRSFHDLRQAFRKFTKSERSKDLIKEAILDNDFMKNLELSQIQEIVDCMYPVEYGKDSCIIKEGDVGSLVYVMEDGKVEVTKEGVKLCTMGPGKVFGELAILYNCTRTATVKTLVNVKLWAIDRQCFQTIMMRTGLIKHTEYMEFLKSVPTFQSLPEEILSKLADVLEETHYENGEYIIRQGARGDTFFIISKGTVNVTREDSPSEDPVFLRTLGKGDWFGEKALQGEDVRTANVIAAEAVTCLVIDRDSFKHLIGGLDDVSNKAYEDAEAKAKYEAEAAFFANLKLSDFNIIDTLGVGGFGRVELVQLKSEESKTFAMKILKKRHIVDTRQQEHIRSEKQIMQGAHSDFIVRLYRTFKDSKYLYMLMEACLGGELWTILRDRGSFEDSTTRFYTACVVEAFAYLHSKGIIYRDLKPENLILDHRGYAKLVDFGFAKKIGFGKKTWTFCGTPEYVAPEIILNKGHDISADYWSLGILMYELLTGSPPFSGPDPMKTYNIILRGIDMIEFPKKIAKNAANLIKKLCRDNPSERLGNLKNGVKDIQKHKWFEGFNWEGLRKGTLTPPIIPSVASPTDTSNFDSFPEDNDEPPPDDNSGWDIDF
# modifications: intermolecular disulfide bond at Cys42 between the two subunits
# notes: protein kinase G Iα (cGMP-dependent protein kinase 1, alpha isoform), human, untagged WT construct; also called PKGIα; source: FreeStyle 293-F cells, transfected, purified (8-AEA-cAMP agarose, size exclusion chromatography); incubated with 10 mM lipoic acid to obtain the disulfide dimer
# Key:
# [1] = molecular target: B2; assay: ITC; PLN (1–23) (700 μM) titrated into the cell containing WT disulfide PKGIα or the C42S mutant (70 μM); 25 °C; 50 mM sodium phosphate buffer pH 7.4, 100 mM NaCl; no cyclic nucleotide; details: both partners purified
# [2] = molecular target: the molecule itself; assay: cross-linking; intermolecular Cys42 disulfide of purified recombinant PKGIα (lipoic acid or air oxidation) seen as dimer by SDS-PAGE
Binder,Kd [1] [µM],stoichiometry N [1],stoichiometry N [2]
B1,~7,1 PLN peptide per PKGIα disulfide dimer,
B2,,,2
